Laboratory results reported in patent publication US6544767.

Target: mature recombinant human cathepsin O2 (human) (UniProt P43235)
Experiment: cell-based or functional assay

Chain of mature recombinant human cathepsin O2 (human) (P43235 115-329): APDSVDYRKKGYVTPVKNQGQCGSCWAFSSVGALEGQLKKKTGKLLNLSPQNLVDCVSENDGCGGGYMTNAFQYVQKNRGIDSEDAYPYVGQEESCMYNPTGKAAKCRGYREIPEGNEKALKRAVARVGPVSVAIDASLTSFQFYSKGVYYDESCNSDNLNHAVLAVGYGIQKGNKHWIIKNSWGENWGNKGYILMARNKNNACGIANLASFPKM

chicken cystatin (from UniProt P01038 24-139)
% inhibition (of cathepsin O2 activity, fluorimetric Z-FR-MCA assay, 0.1 µM inhibitor): 100%
